Laboratory results taken from the domain aggregation screens of Martell et al. (2025).

Assay: soluble fraction after stress (log2 fold change); higher = more stays soluble; pooled small domains, quantitative proteomics
Details: stress: pH 4
How it was run: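 High-throughput quantitative proteomics was run on pooled custom libraries of small protein domains following pH 4 stress. Fold changes are on a log2 scale; higher values mean more of a domain remained soluble. The fold change in soluble amount is taken as a measure of aggregation propensity.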

Sequence	soluble fraction (log2)
HMNQILDFTREVKNLPEQDKIKIVEALWSIIYSNKDADIYETNLMRRLAGLLYIDNKTMGDIKEKIKQNL	-0.421
HMNQNHFLDSVVEFAKDEASRAFFQKAVKKLGEGLVEEAMGEVKMREADGSVNSRAPYFIALLENWMENR	-0.128
HMNQNIYVPKLEGLQIEEASSILKSKGLNIEITDSIFRKDAVPGAIIEQTPKPNSRVKTGRNIYVSIYSK	-0.199
HMNQSEMIGSRLKEERLQQKLTLKQLSEKVGLSIGYLSQVERGYGTLSLSALKKLSSALGLEMSTFFD	0.121
HMNQTGQYENAAKRFNQLITIDSSDKRAYLQLGISNYNLGNKEKADSLFNIIRNSKDKLLIEELDNFLT	-0.169
HMNQYALTDREKNVLGLLVDGLSYKMIADKENISFHTVNAHVRKIYEKLHVHSLAEAVSKALKENL	0.056
HMNQYRKLDGDVQNQIIYILSEYPKLPATIVYQRLLDTNTIVKKDVSLSTVNRFVQKYKDSKGIT	0.0672
HMNREDYIKAIFKIAEREGEASNQRIADSLGVSRASASEMVKKLIQEGFVVAEGRQLSLSAEGERIA	-0.32
HMNREEKKALTRRQIIDVATRLFRQHGIHNTDLKTIATEAGVSVVTFYKYFDSKEALIGTIAAEQ	-0.23
HMNRNHVFDSNGPDLRLRGTAQQLFEKYLQLGRDATSGGDRVMAEGYFQHAEHYFRILNAMNQAAMQH	-0.0835
HMNRPYETLFTGLTTDEASAIVGKLEEYGAADYKIEGDTIKVPAAQEPDLKAKLLLDGYPKS	0.0842
HMNRTEYMAALRRALSVLPEEERASALRYYEEYFDDAGPENEEKVIADLGAPEKVAGQILADYRE	-0.462
HMNSDQMKEHLDNLVDMAKKNDNTLIDTEIVNYFVGKPDIELNTDMMTKIFDYLDEHHVAVLS	-1.85
HMNSEFPFNGGRIVDNVPANRLQIFFDEKPDADVRTRLKQNGFRWAPNSGAWQSYRHGYTLDWARREFNA	-0.197
HMNSEPKTKLQEIAQERGLAAPVYETTHTGPDHDRIFSASVTVGDVVAAGEARSRKGAESEAAIAAIKALG	0.155
HMNSFGWESLIDKEGIADTDLHPSGWVRIDDRRIFVVSEGDFIDKGSGVTVLSVDGNRVVVRELI	-1.03
HMNSHLEEGRHGLQIGDPGIVRARIESDPEGETDMPVVVIDGRNISWNEFGRMVATYTGFQFKLEM	-0.58
HMNSHQNELDNALTEAHTASRRLLEGTDEYLDLSSQPAYIRRLQHLLAQKYNLGSLSSGVEPNRHIRLLQ	-0.174
HMNSIDIENELVKIIEKNGQPMSFDDLVFKLDSLYSTRYKFAKGYIRTIILNSNRIASIGKTSTYSLYKWN	-0.31

Sequence	soluble fraction (log2)
HMNSKKETLLSYLYNHSTWSSRNDLSNFLNVSTRQVTNYINEINKNETIVLSSNKGYKINPKFIGKN	0.22
HMNSKMTYSDLIGNIEQGNVSSVELASDGKSATVTLTDNSQKQVNIPSLDSFVTYVQDHIKAGTLSVEE	0.109
HMNSKSDDELLSKTTSLLIHAAKIDENYTDKEKEIIKKTLIQLGVKESKADQIMLTAEINEE	-0.36
HMNSKYILLQVSDIPKTSLVLERQFGVTEYSVQDEHTLRIYDTSLDMAAVNKALVVQDIAVISSQL	-1.3
HMNSLFPLSLKYLREQANITQAELAQKLDVTQQAVGRWERGQTSPDYETLKRLSVLFNVSVDYLLGV	-0.359
HMNSNIIKTINDELSIRKGKYGPYIMYKTKKMKRPKFKSIGDNTPDEFLADKGSISEIILWIN	-0.452
HMNSSHRLIGLDPGLRVTGWGIVDAIGTKLVHVANGSVKSQQNAPLATRLLELENGLEEVFDNWQPDFA	-0.0459
HMNSVLPQEVKSSLNDFFTKYAPGSIAQKLINHASFTGGKVVVTGVELTQTQADDLKKAFKDKFF	0.22
HMNSVTLEHIVYDFRVFNMLKGSGINDIDELIKAAEDGRLFKIIGSNLTYKRIKKSAAEFGVILPDKPG	-0.45
HMNSVYTPDPKELAKAIKIVTAAREAEQKGQGVIAVDGRMVDAPVVSQALRILELARLAGMEVSE	0.22
HMNTAIPIAIDQLRIGMYIQLGLNWMSHPFPVSSFRIASESQIEILRGLGLAEVRYVPAKSDPVP	-0.911
HMNTDEYEQKRGEILDAAQRLIYTKGYERMSIQDILDELKISKGAFYHYFDSKQSLLEALTARMMTE	-0.408
HMNTDIHRLLDEAFVRVDMTPDAQHLKEEIRANLVARVDELEASGVPSADAARRAIAELGDVRELL	-0.671
HMNTFDLSKLEEIILASRDKAMKTKEFTELDNLKNLFITAGLDVQMSKNGIKLIKGPKFNSSLLEDF	-0.741
HMNTIIIDILPKGLSIAGNQTEPKSLIQQLLMARRADPAQPILLRPAIAVPVQNVVELIDRLTAAGI	-0.412
HMNTISEADAKRIALERAGLTAADYVKVDYDQDDNEYEVEMRSGNTEYEVKISGSTGAVLEYDSETD	-0.0384
HMNTISTLEITTKKDIRILDESELLKSKSSKNNIFNYLLASGDFNLLKDKLNEIDEFSDEIISYQLN	-0.356
HMNTKQRTAVMRILKQSSDPVSADDVFAALKDEYPSLALSTVYRNLERFADESMVKKDVWSDGIVRYSLAD	-0.471
HMNTLGTNIAKLRESQKLTQEELGKLSGVSRVSIYKIETGQSTPRDTTLQNIAEALHTTPSALRS	0.22
